Experimental data published in the supplement of paper PMC12042874.
± gives the uncertainty stated by the source.

Assay: amyloid nucleation score (Sup35N fusion, yeast selection) (log enrichment); library NNK3; higher = more nucleation; inactive = no reads after selection
How it was run: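 Psi-negative yeast expressed Sup35N fused to peptides of 20 random codons. They were induced 24 hours with 100 μM copper sulfate, grown 7 days at 30°C without adenine and uracil, and their plasmid inserts from input and output were Illumina-sequenced. The nucleation score is the DiMSum log enrichment of output over input reads, centred on the mode score of non-aggregating sequences. Sequences with under 100 input reads were excluded.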

IEINCCSNFIGVCVDNLNL
amyloid nucleation score: 2.57 ± 0.055

IFCVGVSLRQ
amyloid nucleation score: 0.347 ± 0.3

IFFVYLLSANIGCYEWDVVP
amyloid nucleation score: 0.821 ± 0.12

IFHRD
amyloid nucleation score: inactive

IFLCI
amyloid nucleation score: inactive

IFLIPYA
amyloid nucleation score: inactive

IFLNLLSRGFGLGRELKCRC
amyloid nucleation score: inactive

IFMLWPAD
amyloid nucleation score: inactive

IFNNYIIYTSYKEV
amyloid nucleation score: 3.49 ± 0.077

IFNQLDLFCDRTLDGLRDAK
amyloid nucleation score: inactive

IFNRQFQKSIMRSWLNYESK
amyloid nucleation score: 0.864 ± 0.13

IFPFFVVFGFDTYAGI
amyloid nucleation score: inactive

IFSMMLF
amyloid nucleation score: inactive

IFSRGEGLLRRMVSL
amyloid nucleation score: inactive

IFVCKRLMRGLVR
amyloid nucleation score: inactive

IFYDNADTSKMNHISH
amyloid nucleation score: inactive

IFYVGNTLIFFIYMNWNRTY
amyloid nucleation score: 0.679 ± 0.24

IGDDGFVN
amyloid nucleation score: inactive

IGHGYMVDRWILRVVMVVAL
amyloid nucleation score: inactive

IGLSLGCVFVMDNVLNARN
amyloid nucleation score: 1.55 ± 0.076

IGRTCMCLYSAVVFIRHGTT
amyloid nucleation score: inactive

IGVYWVLPPGFFGWQNTLMI
amyloid nucleation score: 0.161 ± 0.56

IHHKLVDL
amyloid nucleation score: inactive

IHLGMWIRKQFY
amyloid nucleation score: 0.985 ± 0.15

IIAPRLY
amyloid nucleation score: inactive

IIHLENMPICQGALIDGLAL
amyloid nucleation score: inactive

IIITVVGSCYSV
amyloid nucleation score: 1.7 ± 0.071

IINFSYANAVVIVWLNISMG
amyloid nucleation score: 1.08 ± 0.16

IIRSGGNGLCSTKYLSSHFL
amyloid nucleation score: inactive

IIRVGMLWVGKLLRRSWGEQ
amyloid nucleation score: inactive

IKFIPYYCYPCRLIRLRVKC
amyloid nucleation score: inactive

IKFRDVEGKTLVQKCSQIF
amyloid nucleation score: inactive

IKGQSLSNSVFWSGGLDLRV
amyloid nucleation score: inactive

IKLVIANCNYMMYVEMV
amyloid nucleation score: inactive

IKMGVRYGRNTVWTARCGSG
amyloid nucleation score: 0.222 ± 0.6

IKQDVASSVFM
amyloid nucleation score: inactive

IKSERIWDM
amyloid nucleation score: inactive

IKSPLDFFNVYVMVLGNWQI
amyloid nucleation score: inactive

ILCAFTRVWCYTNGPYESGR
amyloid nucleation score: 2.72 ± 0.053

ILIRITGAFYIMIINNRRLL
amyloid nucleation score: inactive

ILLLRGDGEACFNRVNDNSF
amyloid nucleation score: inactive

ILLMLSVQGNLLKRMRILSM
amyloid nucleation score: inactive

ILLRQKHVHNY
amyloid nucleation score: inactive

ILMELPRRRMWSLKALSLMY
amyloid nucleation score: inactive

ILRCVFRGYMYYVMGSFYLT
amyloid nucleation score: inactive

ILSCPSS
amyloid nucleation score: inactive

ILSNINFVRNSFCYYMINFI
amyloid nucleation score: inactive

ILTEYLPSTS
amyloid nucleation score: inactive

ILTKRTAAFDPLGLKNWERC
amyloid nucleation score: -0.398 ± 1.7

ILTLLCRFTYRDETPCLWTV
amyloid nucleation score: inactive

ILVHTHLSTLSIRHTASPMT
amyloid nucleation score: inactive

ILVLDSWYVACTTACKGTNK
amyloid nucleation score: -1.57 ± 2.5

ILVYLASLVTNFNYVHIPLG
amyloid nucleation score: 0.969 ± 0.18

ILWLLILTFLNRRARCIEQN
amyloid nucleation score: -0.567 ± 0.51

IMCSGFFDTVKFGWSLLSFS
amyloid nucleation score: 0.521 ± 0.24

IMILFI
amyloid nucleation score: 0.13 ± 0.49

IMKACGDK
amyloid nucleation score: inactive

IMMFIPWTSYLKYRIIMDYS
amyloid nucleation score: inactive

IMMIDWWYMFGCYACLETCH
amyloid nucleation score: inactive

IMSRMYDDSFADLVCKHAVD
amyloid nucleation score: inactive

IMTVILSPLLTCNYFCCR
amyloid nucleation score: 2.35 ± 0.085

IMWGYDSWFCSANHRSQFRY
amyloid nucleation score: -0.314 ± 0.98

IMYTRAYLFYTRDHCLFIRV
amyloid nucleation score: inactive

INCLRSLTNCINSCRPIIVL
amyloid nucleation score: inactive

INFSCLLLKHLFRWVRPYLS
amyloid nucleation score: inactive

INITLWWVTVEFNMSARVQI
amyloid nucleation score: inactive

INLGLPVWSSIIFFNQSHNL
amyloid nucleation score: 0.679 ± 0.14

INPYVL
amyloid nucleation score: inactive

INQRVYESWLAFV
amyloid nucleation score: inactive

INSLFLRERICRVRCPGFAS
amyloid nucleation score: inactive

INSTRMAFVWR
amyloid nucleation score: inactive

INTEGLVVIVGGRLYVILRV
amyloid nucleation score: inactive

INTGQMQSAYETNLVMRKLA
amyloid nucleation score: inactive

INTLYMTDRDRSLPESVQNL
amyloid nucleation score: inactive

INVVSEFGFGLQSTFRSDLV
amyloid nucleation score: inactive

INWIWAYI
amyloid nucleation score: inactive

INYGTRQCVVQCIIVVCSLG
amyloid nucleation score: 2.17 ± 0.068

IPLLNVFSTRRSTCLEGSFT
amyloid nucleation score: inactive

IPLYHSWSVASLRLRNVVSW
amyloid nucleation score: inactive

IPVNYLASDMFN
amyloid nucleation score: inactive
